Square brackets hold non-standard residues; d marks the D form. Ends that are not written are not given here. * marks the point of attachment. Biotin = O=C1N[C@H]2[C@H](CS[C@H]2CCCCC(=O)*)N1; Ahx = NCCCCCC(=O)O
T1: GST-YxxQ (307-545), recombinant CoAA YxxQ repeats (human, UniProt Q96PK6 307-545)
T1 construct: CoAA (RBM14) YxxQ repeats, residues 307-545; also called YxxQ repeats (307-545); recombinant GST fusion CoAA YxxQ repeats; source: recombinant GST fusion protein
T1 sequence (looked up): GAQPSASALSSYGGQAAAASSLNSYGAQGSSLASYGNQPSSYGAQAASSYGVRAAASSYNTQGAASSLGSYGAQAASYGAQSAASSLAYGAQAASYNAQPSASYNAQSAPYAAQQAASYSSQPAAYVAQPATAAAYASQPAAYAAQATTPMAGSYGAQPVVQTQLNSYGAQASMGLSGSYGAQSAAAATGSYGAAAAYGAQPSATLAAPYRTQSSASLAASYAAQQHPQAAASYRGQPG

T2: GST-YxxQ (307-545), recombinant CoAA YxxQ repeats (human, UniProt Q96PK6 307-545)
T2 chain: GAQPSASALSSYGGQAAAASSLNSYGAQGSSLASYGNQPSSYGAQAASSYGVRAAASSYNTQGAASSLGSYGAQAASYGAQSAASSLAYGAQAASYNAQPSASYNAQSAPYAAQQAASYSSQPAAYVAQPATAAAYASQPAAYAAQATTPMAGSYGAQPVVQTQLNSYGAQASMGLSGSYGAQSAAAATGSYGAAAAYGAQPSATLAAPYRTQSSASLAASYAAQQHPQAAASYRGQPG


Legend:
[1] = target: T1, GST-YxxQ (307-545), recombinant CoAA …; assay: ELISA; competition: GST-YxxQ coated; non-labeled IERM peptide at 12.8-40000 ng/ml against a constant concentration of biotin-labeled CTD peptides; streptavidin-HRP; conditions: both partners purified
[2] = target: T2, GST-YxxQ (307-545), recombinant CoAA …; assay: ELISA; competition with biotin-labeled pSer5 CTD peptide
[3] = target: T1, GST-YxxQ (307-545), recombinant CoAA …; assay: ELISA; GST-YxxQ or GST-AxxQ (307-545) coated at 500 ng/well on 96-well plate with BSA; biotin-labeled diheptad peptides at 6.4-20000 ng/ml overnight; streptavidin-HRP, luminescence; EC50 by sigmoidal non-linear curve fit; conditions: both partners purified

| Binder | binding result [1] | IC50 [2] [nM] | EC50 [3] [nM] |
| --- | --- | --- | --- |
| TIERMGSGVERMGPA (diheptad of the IERM repeats of hnRNP M, without biotin label; also called nonlabeled IERM peptide; IERM peptide; source: synthetic peptide) [non-labeled IERM diheptad peptide] | binds | 106 |  |
| KKSYSPTSPSYSPTSPS (phosphoserine at Ser2 of each heptad (SYpSPTSPSYpSPTSPS); biotin on the N-terminus; C6 spacer (aminocaproic acid) between KK and the peptide, two lysine residues inserted between biotin and the C6 spacer: [Biotin]-KK-C6-peptide; diheptad of the CTD heptad repeats of the RNAP II largest subunit, printed as SYpSPTSPSYpSPTSPS; also called pSer2 CTD; source: synthetic peptide) [biotin-labeled Ser2-phosphorylated CTD diheptad peptide] |  |  | 135 |
| KKSYSPTSPSYSPTSPS (phosphoserine at Ser5 of each heptad (SYSPTpSPSYSPTpSPS); biotin on the N-terminus; C6 spacer (aminocaproic acid) between KK and the peptide, two lysine residues inserted between biotin and the C6 spacer: [Biotin]-KK-C6-peptide; diheptad of the CTD heptad repeats of the RNAP II largest subunit, printed as SYSPTpSPSYSPTpSPS; also called pSer5 CTD; source: synthetic peptide) [biotin-labeled Ser5-phosphorylated CTD diheptad peptide] |  |  | 101 |
| KKSYSPTSPSYSPTSPS (biotin on the N-terminus; C6 spacer (aminocaproic acid) between KK and the peptide, two lysine residues inserted between biotin and the C6 spacer: [Biotin]-KK-C6-peptide; diheptad of the CTD heptad repeats (YSPTSPS) of the RNAP II largest subunit; also called CTD peptide; unphosphorylated CTD peptide; source: synthetic peptide) [biotin-labeled unphosphorylated CTD diheptad peptide] |  |  | 1070 |
| Biotin-KK[Ahx]TIERMGSGVERMGPA (two lysine residues inserted between biotin and the C6 spacer: [Biotin]-KK-C6-peptide; diheptad of the IERM repeats of hnRNP M; also called IERM peptide; source: synthetic peptide) [biotin-labeled IERM diheptad peptide] |  |  | 83 |

Reference: paper doi:10.1101/671156, “Oncoprotein CoAA repeats interact with RNA polymerase II CTD repeats” (bioRxiv, 2019)
